Test results: publication PMC4414246

B1: U1hpII RNA (structured_RNA)
RNA: AGCUUAUCCAUUGCACCGGAUAAGCU
B2: TAR DNA (structured_DNA)
DNA: GGCAGATCTGAGCCTGGGAGCTCTCTGCC

Legend:
Assay in all cases: fluorescence polarization
U1A E19S:Y13Q = U1A E19S:Y13Q (UniProt P09012 10-89, Y13Q;E19S)
U1A L49A = U1A L49A (UniProt P09012 10-89, L49A)
U1A E19S:N15V = U1A E19S:N15V (UniProt P09012 10-89, N15V;E19S)
U1A E19A:N15V = U1A E19A:N15V (UniProt P09012 10-89, N15V;E19A)
U1A L49A:E19A = U1A L49A:E19A (UniProt P09012 10-89, E19A;L49A)
U1A E19F = U1A E19F (UniProt P09012 10-89, E19F)
U1A E19S = U1A E19S (UniProt P09012 10-89, E19S)
U1A M51A:E19A = U1A M51A:E19A (UniProt P09012 10-89, E19A;M51A)
U1A E19K = U1A E19K (UniProt P09012 10-89, E19K)
dK50dM51 E19S = dK50dM51 E19S (UniProt P09012 10-89, E19S;del50-51)
U1A E19A = U1A E19A (UniProt P09012 10-89, E19A)
U1A L49K = U1A L49K (UniProt P09012 10-89, L49K)
dK50dM51 E19K = dK50dM51 E19K (UniProt P09012 10-89, E19K;del50-51)
U1A = U1A (UniProt P09012 10-89)
U1A M51K = U1A M51K (UniProt P09012 10-89, M51K)
U1A M51A = U1A M51A (UniProt P09012 10-89, M51A)

Row | Binder | Kd (U1A E19S:Y13Q) | Kd (U1A L49A) | Kd (U1A E19S:N15V) | Kd (U1A E19A:N15V) | Kd (U1A L49A:E19A) | Kd (U1A E19F) | Kd (U1A E19S) | Kd (U1A M51A:E19A) | Kd (U1A E19K) | Kd (dK50dM51 E19S) | Kd (U1A E19A) | Kd (U1A L49K) | Kd (dK50dM51 E19K) | Kd (U1A) | Kd (U1A M51K) | Kd (U1A M51A)
1 | B1 | 63.6 ± 8.9 µM | < 0.01 µM | 15.1 ± 2 µM | 48.4 ± 12.4 µM | 11.7 ± 2.1 µM | 36.1 ± 6.8 µM | 11.4 ± 1.6 µM | 15.8 ± 2.7 µM |  |  |  |  |  |  |  | 
2 | B2 |  | 88.2 ± 22 µM |  |  |  | 156 ± 80 µM | 91.9 ± 33.4 µM |  | 12.3 ± 2 µM | 59.9 ± 14.2 µM | 100 ± 33.4 µM | 19.5 ± 2.9 µM | 29.8 ± 5.8 µM | 146 ± 46 µM | 54.3 ± 7.9 µM | 179 ± 37.5 µM
